Kd and koff data for three molecules are collected here from publication PMC9646764 (2022).

B1: mTFPI-Fc (Fc-tagged mouse TFPI) (Fc fusion)
chain: LSEEADDTDSELGSMKPLHTFCAMKADDGPCKAMIRSYFFNMYTHQCEEFIYGGCEGNENRFDTLEECKKTCIPGYEKTAVKAASGAERPDFCFLEEDPGLCRGYMKRYLYNNQTKQCERFVYGGCLGNRNNFETLDECKKICENPVHSPSPVNEVQMSDYVTDGNTVTDRSTVNNIVVPQSPKVPRRR
B3: Chicken TFPI-Fc (Fc fusion)
chain: TDDSDGEEEDVLGVPLPPLKLGHSDCALKADEGPCKAIHVRFYFNIQSRECEIFEYGGCHGNANNFLTLEECQNKCVVTELPLEVMLAKNEREKPNFCYQEKDPGICRGFFSRYFYNKETKICEIFKYGGCLGNQNNFKSLEECQTTCQGNPNLLSVAPDEEHPNHMNSSSPEEERNQFPGIVE

What all share (test): BLI
For one test, the target named is TcdB10.1_(1285-1804) ( | Clostridioides difficile).
In test [1] the target is B3.
Test [2] concerns the target B3.
For test [3], the target named is B1.
In test [4] the target is TFPI-Fc (human IgG-Fc-tagged TFPI without the GPI anchor) (human, UniProt P10646 29-209).
Chain of TFPI-Fc (human IgG-Fc-tagged TFPI without the GPI anchor) (P10646 29-209): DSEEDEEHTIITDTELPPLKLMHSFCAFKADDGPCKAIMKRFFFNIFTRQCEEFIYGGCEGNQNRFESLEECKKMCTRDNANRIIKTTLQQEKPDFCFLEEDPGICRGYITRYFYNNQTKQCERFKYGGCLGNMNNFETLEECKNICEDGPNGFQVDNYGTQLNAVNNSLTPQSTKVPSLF

In the test with TcdB10.1_(1285-1804), B1 yielded a Kd of 465 nM and a koff of 0.00637 s⁻¹.

B2: TcdB4.2_(1286-1805) (domain or fragment)
chain: TNIRISLDSNTRSFIVPVITTEYIREKLSYSFYGSGGTYALSLSQYNMNINIELNENDTWVIDVDNVVRDVTIESDKIKKGDLIENILSKLSIEDNKIILDNHEINFSGTLNGGNGFVSLTFSILEGINAVIEVDLLSKSYKVLISGELKTLMANSNSVQQKIDYIGLNSELQKNIPYSFMDDEGKENGFINCFTKEGLFVSELSDVVLIIKVYMDNSKPPFGYYSNDLKDVKVITKDDVIIITGYYLKDDIKISLSFTIQDKNTIKLNGVYLDENGVAEILKFMNKKGSTNTSDSLMSFLESMNIKSIFIKSLKSNAKLILDTNFIISGTTFIGQFEFICDKDNNIQPYFIKFNTLETKYTLYVGNRQNMIVEPNYNLDDSGDISSTVINFSQKYLYGIDSCVNKVVISPGIYTDEINITPVHEANNTYPEVIVLDTNYISEKINININDLSIRYVWSNDGSDFILMSTDEENKVSQVKIRFTNVFKGNTISDKISFNFSDKQDISINKIISTFTPSYY
Molecule B2 yielded a Kd in the test with Chicken TFPI-Fc [1] of 336 nM. Moreover, the koff is 0.00885 s⁻¹ with Chicken TFPI-Fc [2], 0.00344 s⁻¹ in test [3] and 0.00708 s⁻¹ in test [4].

In the case of B3, in the test with TcdB10.1_(1285-1804), the Kd worked out at 70.5 nM and the koff was 0.006 s⁻¹.
